Reference: paper PMC5457685, “Pellino-1 promotes lung carcinogenesis via the stabilization of Slug and Snail through K63-mediated polyubiquitination” (Cell Death and Differentiation, 2016)

Target: T1, His-tagged Pellino-1 (human, UniProt Q96FA3 1-418)
T1 construct: Pellino-1, human; Pellino-1 FL subcloned into a His6-tagged fusion plasmid; The pull-down text names only 'His-Pellino-1'; also called His-Pellino-1; source: purified His-tagged protein
T1 sequence (looked up): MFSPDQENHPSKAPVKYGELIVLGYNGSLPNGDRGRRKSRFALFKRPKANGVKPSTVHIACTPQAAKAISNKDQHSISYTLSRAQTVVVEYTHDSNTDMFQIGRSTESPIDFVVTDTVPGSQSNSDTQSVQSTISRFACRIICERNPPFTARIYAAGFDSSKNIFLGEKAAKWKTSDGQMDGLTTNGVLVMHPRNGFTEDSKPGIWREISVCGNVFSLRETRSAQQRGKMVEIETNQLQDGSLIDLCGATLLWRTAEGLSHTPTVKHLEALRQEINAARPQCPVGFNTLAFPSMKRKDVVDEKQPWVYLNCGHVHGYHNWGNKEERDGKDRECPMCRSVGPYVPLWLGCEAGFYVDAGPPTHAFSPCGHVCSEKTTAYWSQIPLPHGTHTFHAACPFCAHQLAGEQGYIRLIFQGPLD
Test: pull-down; GST-Slug or GST-Snail adsorbed onto glutathione beads, incubated with purified His-tagged Pellino-1; bound proteins immunoblotted
Details: both partners purified

B1: GST–Slug fusion protein (natural protein, human, UniProt O43623 1-268, looked up)
chain: MPRSFLVKKHFNASKKPNYSELDTHTVIISPYLYESYSMPVIPQPEILSSGAYSPITVWTTAAPFHAQLPNGLSPLSGYSSSLGRVSPPPPSDTSSKDHSGSESPISDEEERLQSKLSDPHAIEAEKFQCNLCNKTYSTFSGLAKHKQLHCDAQSRKSFSCKYCDKEYVSLGALKMHIRTHTLPCVCKICGKAFSRPWLLQGHIRTHTGEKPFSCPHCNRAFADRSNLRAHLQTHSDVKKYQCKNCSKTFSRMSLLHKHEESGCCVAH
notes: Slug, human; pGEX-KG vector encoding GST-tagged human Slug (gift); source: GST fusion protein (pGEX-KG vector) adsorbed onto glutathione beads
Does B1 bind?
Result: binds
